In the RNAGym collection of RNA variant scans (doi:10.1073/pnas.2313332121):

B1: TPR t1 (parent)
chain: GACCAAUCUGCCCUCAGAGCUCGAGAACAUCUUCGGAUGCAGAGGAGGCAGGCUUCGGUGGCGCGAUAGCGCCAACGUCCUCAACCUCCAAUGCAUCCCACCACAUGAUGAUGCCUGAAGAGCCUUGGUUUUUUG

Variants of: B1
Experiment: polymerase ribozyme fitness, log enrichment relative to wild type (log ratio); higher = more active; in vitro selection for triplet polymerase activity
Outline: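 Mutant libraries for each subunit of a heterodimeric triplet polymerase ribozyme were made by PCR and then transcribed. Each library underwent one round of in vitro selection in triplicate: annealing with a biotinylated primer, the partner subunit and triplets, frozen incubation at −7 °C, gel excision of extended constructs, streptavidin-bead capture and RT-PCR. Input and output libraries were Illumina-sequenced, and only genotypes with ≥10 input reads and ≥1 read per output were kept. Fitness is the logarithm, base 2, of genotype enrichment over wild-type enrichment, computed from inverse-variance-weighted replicate averages.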

Row | Variant | polymerase ribozyme fitness (log ratio)
1 | C11A G52A C70U A90G | -2.22
2 | C11G A24G A37C G42A U92C A118U | -3.62
3 | G10A G52A G60A C79A C115A U132A | -1.53
4 | G10A C13G A27U C72U A105U | -3.22
5 | C11A G47A G77A | -2.62
6 | G10C C70G | -3.67
7 | C11G A29G C72G C123A | -0.598
8 | C11G C49A U81G G93U C101G U109A | -5.65
9 | G10U G47C C64U | -1.28
10 | C11A A27G A41U C49G G61U G120A | -3.04
11 | C11G C49A C64U | -0.24
12 | G10A C15A C73U | -2.06
13 | C11G C73G C85A A111G | -1.47
14 | G10A G42U | -1.32
15 | G10U C11G G35A C64U C123A | -5.01
16 | G10U C13G U78A C104U | 0.299
17 | G10U G45A U106A | -0.0856
18 | G10U A90G | -0.702
19 | C11A G69A | -4.25
20 | C11A G69U | -0.0927
21 | G10A U33C | -4.02
22 | C11A C13G C62G | -3.87
23 | C11G A66U U106G | -3.36
24 | G10U C53G C56U A74C C76A A95G G122U | -0.515

Row | Variant | polymerase ribozyme fitness (log ratio)
25 | G10U C20A C49U G65C C94A U109G | -7.47
26 | G10A G19A | -0.895
27 | C11G C76A U112A G117C G128C U134G | -5.47
28 | G10A C15U G17A A41U C72U A105U G120A G122A | -5.83
29 | G10C G120U | -1.23
30 | C11A A46U | -2.08
31 | G10U C101A | -1.56
32 | C11A U32C A37C | -1.07
33 | C11A C56A | -1.49
34 | G10C A83U | -1.28
35 | G10A U21G G52A G69C U78G C115G U133G | -7.23
36 | G10A U55C C70U | -0.798
37 | G10A C20U G57U G113U | -2.28
38 | C11A G71A A91G A121U | 0.674
39 | C11G C15U G45C | -1.34
40 | G10U A37U G52A G77C G120U | 0.713
41 | G10C G63A | -1.49
42 | G10U G25U C34A C99U G113C | -6.47
43 | C11A G47A C62A | -3.74
44 | C11A C56U G69A C76A C79A C124A | -7.17
45 | G10A G42A G44A C72U | -1.94
46 | G10U C49U C72G C82A C114A | -2.83
47 | G10C A46C C101A C123G U130A | -1.67
48 | G10C C15U | -0.996

Row | Variant | polymerase ribozyme fitness (log ratio)
49 | C11G A16G G60A C88U C124A | -0.731
50 | C11G A26C G77U U81A C97U G113A | -6.37
51 | C11G A16C A37C G60U C89G C114G | -6.69
52 | G10A G71C | -0.717
53 | C11A U81C A90G | -2.45
54 | C11A G57U | -1.56
55 | G10A C28G G47U U59G | -5
56 | G10U C53U G65A A91U C104G A121U | -7.6
57 | G10U G93A C99U | -4.71
58 | C11G C98A | -3.33
59 | G10U A37U G120C U129C | 0.637
60 | G10U | -0.124
61 | G10C | -0.497
62 | C11A C15U C34G C62G A95U G110U G120A | -7.3
63 | C11A A46U C53A C72A | -2.19
64 | C11A U21G G120U C123A | -0.701
65 | C11G C22G G36A C70U A83C | -5.41
66 | G10A C15U | -2.8
67 | G10A C40U A46C U130G | -2.46
68 | G10A U14A C56G | -3.83
69 | C11A U109A | -6.59
70 | G10U U21G A46U | -3.02
71 | G10A C98U C115A | -2.67
72 | C11A G69A C86U | -3.51

Row | Variant | polymerase ribozyme fitness (log ratio)
73 | C11G C15U C56U A83U | -1.12
74 | C11A G117U | -3.48
75 | C11A G117A | -3.3
76 | C11G C64U A74U C123U | 0.798
77 | C11A C49A C53U A90U U126C | -4.54
78 | C11A G51U C85U G120C | -3.38
79 | G10C G63A A75G C123U | -0.173
80 | C11G A119G | 0.484
81 | C11A A83G C85U G120C | 0.982
82 | C11A A29U G36A C124U | -4.08
83 | G10U U92G C94U U133A | -2.28
84 | C11G A84U G122A | 0.157
85 | C11A A18U C49A C123G | -2.08
86 | G10A C20U | -1.18
87 | C11G C94U | -0.128
88 | C11G C13U A84U A91U G93C | -2.67
89 | C11A C101G | -3.13
90 | G10A G39U G42A C124A | -0.542
91 | G10U C56A A74G U132C | -1.83
92 | C11G C31A | -4.96
93 | C11A G39U C86U C104U G110A | -2.77
94 | G10A C73U U78A C79U C94A | -0.0725
95 | C11A G45U A84G C101U G122A | -2.1
96 | C11A A37G U81G | -5.66

Row | Variant | polymerase ribozyme fitness (log ratio)
97 | G10C G77U A111U | -4.57
98 | G10C U14G C70U A91C | -4.25
99 | C11A U38C | -2.34
100 | G10A C70G U87A C123A | -4.27
101 | G10U U30C A37G C56U C73U | -4.17
102 | G10A G47U C56U C82A A83G | -2.51
103 | C11A G42U C70U | -3.6
104 | C11A C89U G135U | -2.46
105 | C11A C13U G19A C56G C72U | -4.6
106 | C11A A16U A24U C31G C34G A37C C73A C115U G117C | -7.35
107 | C11G C12G | -1.01
108 | C11G A18C C49A C88G U109A | -6.8
109 | C11G A29G A43C C49A A74C C85G G113A G135U | -3.78
110 | G10A G47C C89U C124G | -0.208
111 | G10A U81A | -0.546
112 | G10U G23U A26G G63A C114G | -5.43
113 | C11A C28G G44A C70U A121C | -4.42
114 | C11G A37U C70A A83C A121C | 0.293
115 | C11G A41U G47C U59A A66U | -6.01
116 | C11G C73U C114U | -1.42
117 | C11A A111C U131A | -2.03
118 | G10C A43U C62A C114U U116C U133G | -6.43
119 | G10U C62A | -1.53
120 | G10U C62U | -0.108

Row | Variant | polymerase ribozyme fitness (log ratio)
121 | C11A A46U G93A | -3.04
122 | C11A C70U | -2.4
123 | C11A C70G | -3.13
124 | C11G C15A | -0.327
125 | G10U C62U C88U C89G A121G U132C | 0.563
126 | C11A G52C A74C A111C | -1.71
127 | G10U C56U | 0.114
128 | G10C C13G | -0.638
129 | C11G C31U G52A U96G G120C | -5.5
130 | C11G C64U C72A C89U | -1.01
131 | G10U G52U C73G | -0.827
132 | C11A C40U G45A G61A U96G C124A | 0.365
133 | G10U G35C | -5.02
134 | G10C C72U A118G | -1.84
135 | G10C C11U C62G A84U A108G | -4.22
136 | G10U C11G G60C A95G | -0.947
137 | G10C C73A G128A | -2
138 | C11A A41U G71U C72U A100U A103G C115A | -6.78
139 | C11G C12U A50G G71A U133G | -4.01
140 | G10A U132A | 0.124
141 | C11A A18C A43C C53U | -4.45
142 | G10A G36U G44U G61U C88U A95G U96A G120A | -7.26
143 | C11A A84C C85U U87A C89G C124A | -4.77
144 | G10U C53U A91U U92A C97U | -6.09

Row | Variant | polymerase ribozyme fitness (log ratio)
145 | C11A G107C G113A C124A | -6.29
146 | G10A U109A | -5.39
147 | G10A C13U G61U | -0.325
148 | G10A G48C U54A C94U G110U A121C C123G | -1.01
149 | C11A U132C | -1.49
150 | C11G C82U G117A | -0.654
151 | G10U C56U U116A | -3.65
152 | C11G C56U | 0.107
153 | C11G C70G G77U A103C A121C U132A | -5.85
154 | G10A C13U U14A G61U C104G | -6.29
155 | C11A U38G C56U C86G U112C | -2.57
156 | G10C G42A A43U C80A U132A | -5.05
157 | G10U G17C G45U G93U C123G | -4.78
158 | C11A G45U | -2.48
159 | G10A G45C C56G G63A | -4.08
160 | G10C C49A G71A | -2.07
161 | C11G A46U C56U C70A C85A C104U | -6.28
162 | G10U C11U G71U C79U | -0.361
163 | G10U C53U | 0.0146
164 | G10C A37U G63U U96A C124U U129G | -4.44
165 | G10A G44U | -1.5
166 | G10C C13A G57U G61C A111U | -5.2
167 | C11A C13G C20U C53U C64U U78G | -3.27
